PMC3698643 (Cell Research, 2013)

B1: PR70 (108-575), wild type (domain or fragment)
chain: VVQTRKEEPLPPATSQSIPTFYFPRGRPQDSVNVDAVISKIESTFARFPHERATMDDMGLVAKACGCPLYWKGPLFYGAGGERTGSVSVHKFVAMWRKILQNCHDDAAKFVHLLMSPGCNYLVQEDFVPFLQDVVNTHPGLSFLKEASEFHSRYITTVIQRIFYAVNRSWSGRITCAELRRSSFLQNVALLEEEADINQLTEFFSYEHFYVIYCKFWELDTDHDLLIDADDLARHNDHALSTKMIDRIFSGAVTRGRKVQKEGKISYADFVWFLISEEDKKTPTSIEYWFRCMDLDGDGALSMFELEYFYEEQCRRLDSMAIEALPFQDCLCQMLDLVKPRTEGKITLQDLKRCKLANVFFDTFFNIEKYLDHEQKEQISLLRDGDSGGPELSDWEKYAAEEYDILVAEETAGEPWEDGFEAELSPVEQKLSALRSPLAQRPFFEAPSPLGAVDLYEYACGDEDLEPL
B2: PR70 (108-575) F128A (domain or fragment)
chain: VVQTRKEEPLPPATSQSIPTAYFPRGRPQDSVNVDAVISKIESTFARFPHERATMDDMGLVAKACGCPLYWKGPLFYGAGGERTGSVSVHKFVAMWRKILQNCHDDAAKFVHLLMSPGCNYLVQEDFVPFLQDVVNTHPGLSFLKEASEFHSRYITTVIQRIFYAVNRSWSGRITCAELRRSSFLQNVALLEEEADINQLTEFFSYEHFYVIYCKFWELDTDHDLLIDADDLARHNDHALSTKMIDRIFSGAVTRGRKVQKEGKISYADFVWFLISEEDKKTPTSIEYWFRCMDLDGDGALSMFELEYFYEEQCRRLDSMAIEALPFQDCLCQMLDLVKPRTEGKITLQDLKRCKLANVFFDTFFNIEKYLDHEQKEQISLLRDGDSGGPELSDWEKYAAEEYDILVAEETAGEPWEDGFEAELSPVEQKLSALRSPLAQRPFFEAPSPLGAVDLYEYACGDEDLEPL
B3: PR70 (108-575) D443K (domain or fragment)
chain: VVQTRKEEPLPPATSQSIPTFYFPRGRPQDSVNVDAVISKIESTFARFPHERATMDDMGLVAKACGCPLYWKGPLFYGAGGERTGSVSVHKFVAMWRKILQNCHDDAAKFVHLLMSPGCNYLVQEDFVPFLQDVVNTHPGLSFLKEASEFHSRYITTVIQRIFYAVNRSWSGRITCAELRRSSFLQNVALLEEEADINQLTEFFSYEHFYVIYCKFWELDTDHDLLIDADDLARHNDHALSTKMIDRIFSGAVTRGRKVQKEGKISYADFVWFLISEEDKKTPTSIEYWFRCMDLDGDGALSMFELEYFYEEQCRRLDSMAIEALPFQDCLCQMLKLVKPRTEGKITLQDLKRCKLANVFFDTFFNIEKYLDHEQKEQISLLRDGDSGGPELSDWEKYAAEEYDILVAEETAGEPWEDGFEAELSPVEQKLSALRSPLAQRPFFEAPSPLGAVDLYEYACGDEDLEPL

What was measured:
[1] = target: GST-tagged PP2A core enzyme (GST-A bound to PP2Ac) (UniProt P30153 9-589; P67775 1-309); test: pull-down
PR70 (108-575) D443K = target: B3; test: pull-down
PR70 (108-575) F128A = target: B2; test: pull-down
PR70 (108-575) R398D = target: T1, PR70 (108-575) R398D (UniProt Q9Y5P8 108-575, R398D); test: pull-down
T1 sequence: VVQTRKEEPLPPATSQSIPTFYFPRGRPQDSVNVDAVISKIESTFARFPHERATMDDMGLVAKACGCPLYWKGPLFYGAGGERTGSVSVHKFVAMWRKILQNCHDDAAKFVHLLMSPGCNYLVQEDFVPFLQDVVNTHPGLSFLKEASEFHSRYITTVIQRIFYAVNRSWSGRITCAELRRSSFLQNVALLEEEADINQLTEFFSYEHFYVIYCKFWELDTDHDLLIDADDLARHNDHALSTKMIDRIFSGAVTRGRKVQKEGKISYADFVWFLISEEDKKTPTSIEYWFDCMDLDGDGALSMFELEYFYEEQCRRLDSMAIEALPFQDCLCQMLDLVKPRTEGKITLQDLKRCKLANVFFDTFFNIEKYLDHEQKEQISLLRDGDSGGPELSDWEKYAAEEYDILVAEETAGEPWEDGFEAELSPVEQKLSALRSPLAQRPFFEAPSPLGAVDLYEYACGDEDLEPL

[2] = target: B1; test: pull-down
[3] = target: PP2A scaffold subunit Aα (9-589) (UniProt P30153 9-589); test: crystal structure
[4] = target: PP2A catalytic subunit Cα (1-309), methylated (UniProt P67775 1-309, fully methylated by LCMT-1 (residue not stated)); test: crystal structure
[5] = target: PP2A holoenzyme containing PR70 (108-519) (UniProt P30153 9-589; P67775 1-309; Q9Y5P8 108-519); test: SEC
[6] = target: PP2A core enzyme (Aα-Cα heterodimer) (UniProt P30153 9-589; P67775 1-309); test: SEC
Chain of PP2A core enzyme (Aα-Cα heterodimer) (P30153 9-589, chain 1 of 2): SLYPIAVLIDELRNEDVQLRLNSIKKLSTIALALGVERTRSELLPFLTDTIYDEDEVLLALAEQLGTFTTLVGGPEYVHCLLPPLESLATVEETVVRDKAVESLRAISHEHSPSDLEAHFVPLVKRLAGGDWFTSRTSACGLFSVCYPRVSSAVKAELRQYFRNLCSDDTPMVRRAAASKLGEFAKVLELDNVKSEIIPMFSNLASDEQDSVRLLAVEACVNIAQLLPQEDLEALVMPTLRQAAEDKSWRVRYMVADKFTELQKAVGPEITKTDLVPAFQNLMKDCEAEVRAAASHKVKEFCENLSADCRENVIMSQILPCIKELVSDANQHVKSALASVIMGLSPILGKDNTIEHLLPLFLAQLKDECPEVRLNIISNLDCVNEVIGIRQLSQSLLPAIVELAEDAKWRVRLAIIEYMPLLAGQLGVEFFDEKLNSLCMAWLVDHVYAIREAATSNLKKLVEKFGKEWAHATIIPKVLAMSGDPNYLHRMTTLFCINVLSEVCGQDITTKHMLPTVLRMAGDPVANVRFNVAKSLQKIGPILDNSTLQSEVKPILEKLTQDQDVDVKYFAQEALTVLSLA
Chain of PP2A core enzyme (Aα-Cα heterodimer) (P67775 whole entry, chain 2 of 2): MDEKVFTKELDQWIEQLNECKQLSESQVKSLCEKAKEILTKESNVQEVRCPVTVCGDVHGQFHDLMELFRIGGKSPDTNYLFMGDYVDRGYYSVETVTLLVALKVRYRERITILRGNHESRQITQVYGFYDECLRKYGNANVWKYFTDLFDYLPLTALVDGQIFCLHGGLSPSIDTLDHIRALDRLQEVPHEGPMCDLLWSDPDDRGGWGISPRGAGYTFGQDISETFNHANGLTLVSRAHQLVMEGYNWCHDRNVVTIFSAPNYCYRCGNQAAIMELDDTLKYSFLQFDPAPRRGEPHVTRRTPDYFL

Chain of GST-tagged PP2A core enzyme (GST-A bound to PP2Ac) (P30153 9-589, chain 1 of 2): as the sequence (P30153 9-589, chain 1 of 2) above
Chain of GST-tagged PP2A core enzyme (GST-A bound to PP2Ac) (P67775 whole entry, chain 2 of 2): as the sequence (P67775 whole entry, chain 2 of 2) above
Chain of PP2A scaffold subunit Aα (9-589) (P30153 9-589): as the sequence (P30153 9-589, chain 1 of 2) above
Chain of PP2A holoenzyme containing PR70 (108-519) (P30153 9-589, chain 1 of 2): as above
Chain of PP2A holoenzyme containing PR70 (108-519) (P67775 whole entry, chain 2 of 2): as the sequence (P67775 whole entry, chain 2 of 2) above
Chain of PP2A catalytic subunit Cα (1-309), methylated (P67775 whole entry): as the sequence (P67775 whole entry, chain 2 of 2) above

## B1
[1]
  binding result: binds

## B2
[1]
  fold reduction of binding affinity against wild-type PR70 (108-575): ~4 fold

## B3
[1]
  fold reduction of binding affinity against wild-type PR70 (108-575): ~2 fold

B4: GST-Cdc6 (18-90) (domain or fragment)
chain: KLSRALNKAKNSSDAKLEPTNVQTVTCSPRVKALPLSPRKRLGDDNLCNTPHLPPCSPPKQGKKENGPPHSHT
PR70 (108-575) D443K
  binding result: binds
PR70 (108-575) F128A
  binding result: binds
PR70 (108-575) R398D
  binding result: binds
[2]
  binding result: binds

B5: PR70 (122-490) fused to Cdc6 (70-90) via a flexible linker (other)
chain: SQSIPTFYFPRGRPQDSVNVDAVISKIESTFARFPHERATMDDMGLVAKACGCPLYWKGPLFYGAGGERTGSVSVHKFVAMWRKILQNCHDDAAKFVHLLMSPGCNYLVQEDFVPFLQDVVNTHPGLSFLKEASEFHSRYITTVIQRIFYAVNRSWSGRITCAELRRSSFLQNVALLEEEADINQLTEFFSYEHFYVIYCKFWELDTDHDLLIDADDLARHNDHALSTKMIDRIFSGAVTRGRKVQKEGKISYADFVWFLISEEDKKTPTSIEYWFRCMDLDGDGALSMFELEYFYEEQCRRLDSMAIEALPFQDCLCQMLDLVKPRTEGKITLQDLKRCKLANVFFDTFFNIEKYLDHEQKEQISLLRSTGNASDSSSDSSSSEGDGTVLPPCSPPKQGKKENGPPHSHT
[3]
  binding result: binds
[4]
  binding result: binds

B6: GST-Cdc6 (49-90) (domain or fragment)
chain: KALPLSPRKRLGDDNLCNTPHLPPCSPPKQGKKENGPPHSHT
[5]
  binding result: binds

B7: PR70 (108-519) (domain or fragment)
chain: VVQTRKEEPLPPATSQSIPTFYFPRGRPQDSVNVDAVISKIESTFARFPHERATMDDMGLVAKACGCPLYWKGPLFYGAGGERTGSVSVHKFVAMWRKILQNCHDDAAKFVHLLMSPGCNYLVQEDFVPFLQDVVNTHPGLSFLKEASEFHSRYITTVIQRIFYAVNRSWSGRITCAELRRSSFLQNVALLEEEADINQLTEFFSYEHFYVIYCKFWELDTDHDLLIDADDLARHNDHALSTKMIDRIFSGAVTRGRKVQKEGKISYADFVWFLISEEDKKTPTSIEYWFRCMDLDGDGALSMFELEYFYEEQCRRLDSMAIEALPFQDCLCQMLDLVKPRTEGKITLQDLKRCKLANVFFDTFFNIEKYLDHEQKEQISLLRDGDSGGPELSDWEKYAAEEYDILVAEETA
[6]
  binding result: binds
